Assays:
hPBMCs = experiment: Immunogenicity test in hPBMCs (IL-6 and TNF-α ELISA of supernatant); format: cell-based, human; details: 18-20 h
Summary of the method: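 siRNA conjugates, three-fold serially diluted in water then 10-fold in 1640 medium (5.0% water final), were added in duplicate to PBMCs at 1.6 × 10^6/mL and incubated 18-20 h at 37 °C. TNF-α and IL-6 in supernatant were measured by ELISA; LPS served as positive control.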

PHH cells = experiment: Off-target assessment by RNA-sequencing in PHH cells; format: cell-based; details: vs PBS, 48 hours; for Downregulated differential genes / Total differential genes / Upregulated differential genes: DESeq2 padj ≤ 0.05 |log2FoldChange| ≥ 1.0
Method: • 1.1 Double-stranded siRNA conjugates • 1.2 PHH cells, purchased from Research Institute for Liver Diseases(Shanghai)Co. Ltd. • 1.3 Main reagents: InvitroGRO CP Medium (Cat. No.: BIOIVT-S03316), Fetal Bovine Serum (Cat. No.: ExCellBio-FSP500), Penicillin-Streptomycin (Cat. No.: Hyclone-SV30010), TRLzol Reagent (Cat. No.: Ambion-15596018).
The cryopreserved PHH was taken from the liquid nitrogen and thawed in a water bath at 37 °C. The fully thawed PHH was transferred to a 10% FBS InvitrogRO CP medium and blended well, and counted using a counter. The cell density was adjusted to 6 × 10^5 cells/mL.
siRNAs were diluted with RNase-free PBS to 10 times the final concentration (for example, diluted to 1000 nM if the test concentration is 100 nM). The diluted siRNAs were then added to a collagen-coated 12-well plate at 100 µL/well, with 1 concentration point, 3 replicated wells, and blank PBS as the negative control group. PHH cells at a density of 6 × 10^5 cells/mL were added to the collagen-coated 12-well plate at 900 µL/well. The final concentrations of the test compounds were […]. The cell plates were incubated in a 5% CO2, 37 ° C incubator for 48 hours. After 48 hours, the medium was removed, 600µL of Trizol was added per well to lyse the cells, and sent to Beijing Novogene Co., Ltd. for RNA-sequencing.
NEB Standard Library Preparation: Fragmented mRNAs were used as a template and random oligonucleotides as primers. The first strand of cDNA was synthesized in an M-MuLV reverse transcriptase system. The RNA strand was then degraded with RNaseH, and the second strand of cDNA was synthesized using a DNA polymerase I system with dNTPs as raw materials. The purified double-stranded cDNA underwent end repair, A-tailing, and adapter ligation for sequencing. The cDNA of approximately 250-300 bp was screened out by AMPure XP beads, PCR amplified, and the PCR product was purified again by AMPure XP beads to finally obtain the library. The kit used for library construction was NEBNext® Ultra ™ RNA Library Prep Kit for Illumina.
After the library construction, quantification was primarily performed using a Qubit2.0 Fluorometer, and the library was diluted to 1.5 ng/µL. The insert size of the library was then detected using an Agilent 2100 bioanalyzer. If the insert size meets expectations, the effective concentration of the library was accurately quantified by qRT-PCR (an effective concentration of the library higher than 2nM) to ensure the quality of the library.
After passing quality control of the library, different libraries were pooled according to the effective concentration and target output data volume for Illumina sequencing. The basic principle of sequencing is Sequencing by Synthesis. Four fluorescently labeled dNTPs, DNA polymerase, and adapter primers were added to the sequencing flow cell for amplification. As each sequencing cluster extends the complementary strand, the incorporation of each fluorescently labeled dNTP can release the corresponding fluorescence. The sequencer captures the fluorescence signal and converts the optical signals into sequencing peaks through computer software, thereby obtaining the sequence information of the test fragments.
Experimental results were obtained through software analysis
Differential gene analysis takes DESeq2 padj ≤ 0.05 |log2FoldChange| ≥ 1.0 as the threshold. Table 8. Differential gene statistics

Substance | IL-6 (hPBMCs; donor 1 hPBMCs, 5 µg/mL) | TNF alpha (hPBMCs; donor 1 hPBMCs, 5 µg/mL) | IL-6 (hPBMCs; donor 1 hPBMCs, 15 µg/mL) | TNF alpha (hPBMCs; donor 1 hPBMCs, 15 µg/mL) | IL-6 (hPBMCs; donor 1 hPBMCs, 45 µg/mL) | TNF alpha (hPBMCs; donor 1 hPBMCs, 45 µg/mL) | Maximum up-regulation folds (PHH cells) | Downregulated differential genes (PHH cells) | Total differential genes (PHH cells) | Upregulated differential genes (PHH cells) | IL-6 (hPBMCs; donor 2 hPBMCs, 5 µg/mL) | TNF alpha (hPBMCs; donor 2 hPBMCs, 5 µg/mL) | IL-6 (hPBMCs; donor 2 hPBMCs, 15 µg/mL) | TNF alpha (hPBMCs; donor 2 hPBMCs, 15 µg/mL) | IL-6 (hPBMCs; donor 2 hPBMCs, 45 µg/mL) | TNF alpha (hPBMCs; donor 2 hPBMCs, 45 µg/mL)
Z42: siRNA conjugate: sense SEQ ID NO:49, ligand D01 at 3' end of sense strand, antisense SEQ ID NO:80 (sense CAGCCCCTTATTGTTATACGA; antisense NCGTATNACAATAAGGGGCNGTT; ligand D01 at sense 3' end; listed as RNA; modified_base 1: mod_base = OTHER; note = 2'-O-methylcytidine; modified_base 2: mod_base = OTHER; note = 2'-O-methyladenosine; modified_base 3: mod_base = OTHER; note = 2'-O-methylguanosine; modified_base 4..7: mod_base = OTHER; note = 2'-O-me; note = n is B33; note = 2'-deoxycytidine; modified_base 4: mod_base = OTHER; note = 2'-O-methyluridine; m) | 1298.3 pg/mL | 35.8 pg/mL | 1406.8 pg/mL | 34.8 pg/mL | 1457.0 pg/mL | 39.4 pg/mL | 1.9 | 0 | 4 | 4 | – | – | – | – | – | –
Z46: siRNA conjugate: sense SEQ ID NO:43, ligand D01 at 3' end of sense strand, antisense SEQ ID NO:66 (sense CAGCCCCTTATTGTTANACGA; antisense TCTCGTATNACAATAAGGGGCTG; ligand D01 at sense 3' end; listed as RNA; modified_base 1: mod_base = OTHER; note = 2'-O-methylcytidine; modified_base 2: mod_base = OTHER; note = 2'-O-methyladenosine; modified_base 3: mod_base = OTHER; note = 2'-O-methylguanosine; modified_base 4..7: mod_base = OTHER; note = 2'-O-me; note = 2'-O-methyluridine; modified_base 4: mod_base = OTHER; note = 2'-fluorocytidine; modified_base 5: mod_base = OTHER; note = 2'-O-methylg) | – | – | – | – | – | – | – | 0 | 0 | 0 | 15.0 pg/mL | 8.1 pg/mL | 88.8 pg/mL | 22.8 pg/mL | 9.3 pg/mL | 10.2 pg/mL

From patent EP4707393A1, “DOUBLE-STRANDED SIRNA, CONJUGATE THEREOF AND USE THEREOF” (CMS Research & Development Pte. Ltd., priority 2023, dated 2024)
